Assays:
[1] = target: Cys-HA_(Anchorless) peptide, unlabelled (influenza virus); experiment: SPR
[2] = target: influenza virus hemagglutinin peptide HA_(305–318), unlabelled (influenza virus); experiment: SPR
[3] = target: fluorescein-labelled HA_(Anchorless) peptide (influenza virus); experiment: dissociation kinetics of fluorescent peptide-MHC complexes

Substance	dissociation rate in the presence of DM [1] [s⁻¹]	rate of binding to the peptide surface in the absence of DM [1] [s⁻¹]	t1/2 in the presence of DM [1] [h]	dissociation rate in the presence of DM [2] [s⁻¹]	t1/2 in the presence of DM [2] [h]	t1/2 of dissociation [3] [h]	t1/2 of dissociation [1] [h]
soluble wild-type HLA-DR1 (empty, no added peptide) (from UniProt P01903) (complex)	0.0038	0.035	0.05	5.6e-07	344	1.8	–
soluble mutant HLA-DR1 with β86 glycine changed to tyrosine (from UniProt P01903) (complex)	8.5e-05	0.119	2.25	–	–	1.8	3.4

Source: publication PMC2213500 (The Journal of Experimental Medicine, 2000)
